Data taken from paper PMC11820146.

What follows are substances tested against growth hormone receptor (GHR) (UniProt P10912).
Chain of UniProt P10912 (P10912 19-638): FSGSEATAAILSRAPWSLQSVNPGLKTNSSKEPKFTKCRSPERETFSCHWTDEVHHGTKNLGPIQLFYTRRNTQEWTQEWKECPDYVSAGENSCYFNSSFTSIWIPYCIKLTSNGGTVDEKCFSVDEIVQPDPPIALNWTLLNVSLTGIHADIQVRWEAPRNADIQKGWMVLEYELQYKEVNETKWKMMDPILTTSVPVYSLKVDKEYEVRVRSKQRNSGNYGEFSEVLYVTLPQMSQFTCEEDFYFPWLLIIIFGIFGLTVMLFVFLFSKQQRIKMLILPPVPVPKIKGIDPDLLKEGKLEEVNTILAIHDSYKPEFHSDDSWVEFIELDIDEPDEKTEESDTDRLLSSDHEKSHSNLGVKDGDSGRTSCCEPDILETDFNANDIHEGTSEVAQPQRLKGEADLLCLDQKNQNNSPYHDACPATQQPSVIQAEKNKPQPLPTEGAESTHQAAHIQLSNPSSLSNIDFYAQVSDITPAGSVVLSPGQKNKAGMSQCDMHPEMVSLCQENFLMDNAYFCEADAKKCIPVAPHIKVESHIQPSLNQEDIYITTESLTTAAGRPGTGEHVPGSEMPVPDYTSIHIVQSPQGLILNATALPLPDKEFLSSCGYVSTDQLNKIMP
For “PEG-rhGH isomer P1 (PEGylated recombinant human growth hormone, modified at the N-terminus) (from UniProt P01241 27-217) (ligand)”, the bioactivity relative to the PEG-rhGH reference, reporter gene assay (luciferase, HepG2/IGF-1 cells) was 71.1%.
Substance “PEG-rhGH isomer P2 (PEGylated recombinant human growth hormone, modified at K140) (from UniProt P01241 27-217) (ligand)” has a bioactivity relative to the PEG-rhGH reference, reporter gene assay (luciferase, HepG2/IGF-1 cells) of 163%.
Substance “PEG-rhGH isomer P3 (PEGylated recombinant human growth hormone, modified at K145) (from UniProt P01241 27-217) (ligand)” has a bioactivity relative to the PEG-rhGH reference, reporter gene assay (luciferase, HepG2/IGF-1 cells) of 143%.
In the case of “PEG-rhGH isomer P4 (PEGylated recombinant human growth hormone, modified at K38) (from UniProt P01241 27-217) (ligand)”, the bioactivity relative to the PEG-rhGH reference, reporter gene assay (luciferase, HepG2/IGF-1 cells) is reported as 29%.
“PEG-rhGH isomer P5 (PEGylated recombinant human growth hormone, modified at K158) (from UniProt P01241 27-217) (ligand)” showed a bioactivity relative to the PEG-rhGH reference, reporter gene assay (luciferase, HepG2/IGF-1 cells) of 107%.
